{"source": "patent US20130005646A1", "about": "(Novo Nordisk, published 2013)", "key": {"[1]": {"target": "T1, human calcitonin (a) receptor (human, UniProt P30988 25-474)", "T1 sequence (looked up)": "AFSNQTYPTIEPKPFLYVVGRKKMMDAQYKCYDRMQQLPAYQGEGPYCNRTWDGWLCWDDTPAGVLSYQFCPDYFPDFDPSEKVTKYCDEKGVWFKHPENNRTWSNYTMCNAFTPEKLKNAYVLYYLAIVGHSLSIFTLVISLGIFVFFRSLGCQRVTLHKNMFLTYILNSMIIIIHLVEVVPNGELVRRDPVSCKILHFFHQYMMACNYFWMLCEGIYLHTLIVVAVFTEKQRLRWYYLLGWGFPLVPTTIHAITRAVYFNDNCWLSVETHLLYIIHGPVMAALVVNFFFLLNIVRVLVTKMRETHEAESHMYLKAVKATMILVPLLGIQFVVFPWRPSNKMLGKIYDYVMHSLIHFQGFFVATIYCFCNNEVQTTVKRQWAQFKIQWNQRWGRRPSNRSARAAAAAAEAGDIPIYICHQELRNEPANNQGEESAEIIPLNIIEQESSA", "assay": "cell-based or functional assay"}, "[2]": {"target": "T2, human amylin 3(a) receptor (human calcitonin receptor + RAMP-3) (human, UniProt P30988 25-474; O60896 24-148)", "T2 sequence (looked up) 1": "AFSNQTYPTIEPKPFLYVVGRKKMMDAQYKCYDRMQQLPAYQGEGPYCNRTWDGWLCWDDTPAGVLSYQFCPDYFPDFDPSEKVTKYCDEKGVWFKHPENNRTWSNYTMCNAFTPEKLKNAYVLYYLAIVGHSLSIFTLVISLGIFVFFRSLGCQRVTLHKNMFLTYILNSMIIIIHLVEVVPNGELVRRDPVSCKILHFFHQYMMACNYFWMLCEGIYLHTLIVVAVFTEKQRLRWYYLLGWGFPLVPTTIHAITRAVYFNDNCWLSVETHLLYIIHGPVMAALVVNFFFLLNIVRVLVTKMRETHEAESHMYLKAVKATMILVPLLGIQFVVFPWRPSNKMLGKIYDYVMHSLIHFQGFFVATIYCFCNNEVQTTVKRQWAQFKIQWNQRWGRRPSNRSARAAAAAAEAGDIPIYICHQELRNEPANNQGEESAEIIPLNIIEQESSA", "T2 sequence (looked up) 2": "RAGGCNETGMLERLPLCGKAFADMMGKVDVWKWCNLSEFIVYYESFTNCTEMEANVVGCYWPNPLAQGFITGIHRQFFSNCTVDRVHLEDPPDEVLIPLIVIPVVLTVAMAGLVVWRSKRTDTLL", "assay": "cell-based or functional assay"}}, "note": "Starred links: 1 amine or outer side, 2 acyl side, 3 side chain; linkers in the order of their positions; H or OH if unused. Positions of bridges follow the written chain, without caps; N, C: chain ends. *: point of attachment. C20 diacid = O=C(O)CCCCCCCCCCCCCCCCCCC(=O)*; 19‑carboxyheptadecanoyl = not defined here; C18 diacid = O=C(O)CCCCCCCCCCCCCCCCC(=O)*; γGlu = O=C(O)[C@H](CCC(=O)[*:2])N[*:1]; AEEA = NCCOCCOCC(=O)O"}
{"binder": "{19‑carboxyheptadecanoyl-γGlu-AEEA-AEEA}-CNTATCATQRLAEFLHHSSNNFGPILPPTNVGSNTY-NH2 (disulfide 1-6; reading uncertain; also: printed as N-alpha-[2-(2-{2-[2-(2-{2-[(S)-4-Carboxy-4-(19-carboxyheptadecanoylamino)butyrylamino]ethoxy}ethoxy)acetylamino]ethoxy}ethoxy)acetyl]-[des1,Glu14,His17]-pramlintide)", "values": [{"measurement": "CTa receptor human EC50", "setting": "[1]", "result": 0.672, "unit": "nM"}, {"measurement": "Amylin receptor human EC50", "setting": "[2]", "result": 0.334, "unit": "nM"}]}
{"binder": "{C20 diacid-γGlu}-EEKCNTATCATQRLAEFLHHSSNNFGPILPPTNVGSNTY-NH2 (disulfide 4-9; SMILES CC[C@H](C)[C@H](NC(=O)[C@@H]1CCCN1C(=O)CNC(=O)[C@H](Cc1ccccc1)NC(=O)[C@H](CC(N)=O)NC(=O)[C@H](CC(N)=O)NC(=O)[C@H](CO)NC(=O)[C@H](CO)NC(=O)[C@H](Cc1c[nH]cn1)NC(=O)[C@H](Cc1c[nH]cn1)NC(=O)[C@H](CC(C)C)NC(=O)[C@H](Cc1ccccc1)NC(=O)[C@H](CCC(=O)O)NC(=O)[C@H](C)NC(=O)[C@H](CC(C)C)NC(=O)[C@H](CCCNC(=N)N)NC(=O)[C@H](CCC(N)=O)NC(=O)[C@@H](NC(=O)[C@H](C)NC(=O)[C@@H]1CSSC[C@H](NC(=O)[C@H](CCCCN)NC(=O)[C@H](CCC(=O)O)NC(=O)[C@H](CCC(=O)O)NC(=O)CC[C@H](NC(=O)CCCCCCCCCCCCCCCCCCC(=O)O)C(=O)O)C(=O)N[C@@H](CC(N)=O)C(=O)N[C@@H]([C@@H](C)O)C(=O)N[C@@H](C)C(=O)N[C@@H]([C@@H](C)O)C(=O)N1)[C@@H](C)O)C(=O)N[C@@H](CC(C)C)C(=O)N1CCC[C@H]1C(=O)N1CCC[C@H]1C(=O)N[C@H](C(=O)N[C@@H](CC(N)=O)C(=O)N[C@H](C(=O)NCC(=O)N[C@@H](CO)C(=O)N[C@@H](CC(N)=O)C(=O)N[C@H](C(=O)N[C@@H](Cc1ccc(O)cc1)C(N)=O)[C@@H](C)O)C(C)C)[C@@H](C)O)", "note": "[N-alpha-[(S)-4-Carboxy-4-(19-carboxynonadecanoylamino)butyryl]-Glu-Glu-[Glu14,His17]-pramlintide]", "values": [{"measurement": "CTa receptor human EC50", "setting": "[1]", "result": 0.798, "unit": "nM"}, {"measurement": "Amylin receptor human EC50", "setting": "[2]", "result": 0.402, "unit": "nM"}]}
{"binder": "{C18 diacid-γGlu}-HHHCNTATCATQRLAEFLHHSSNNFGPILPPTNVGSNTY-NH2 (disulfide 4-9; SMILES CC[C@H](C)[C@H](NC(=O)[C@@H]1CCCN1C(=O)CNC(=O)[C@H](Cc1ccccc1)NC(=O)[C@H](CC(N)=O)NC(=O)[C@H](CC(N)=O)NC(=O)[C@H](CO)NC(=O)[C@H](CO)NC(=O)[C@H](Cc1c[nH]cn1)NC(=O)[C@H](Cc1c[nH]cn1)NC(=O)[C@H](CC(C)C)NC(=O)[C@H](Cc1ccccc1)NC(=O)[C@H](CCC(=O)O)NC(=O)[C@H](C)NC(=O)[C@H](CC(C)C)NC(=O)[C@H](CCCNC(=N)N)NC(=O)[C@H](CCC(N)=O)NC(=O)[C@@H](NC(=O)[C@H](C)NC(=O)[C@@H]1CSSC[C@H](NC(=O)[C@H](Cc2c[nH]cn2)NC(=O)[C@H](Cc2c[nH]cn2)NC(=O)[C@H](Cc2c[nH]cn2)NC(=O)CC[C@H](NC(=O)CCCCCCCCCCCCCCCCC(=O)O)C(=O)O)C(=O)N[C@@H](CC(N)=O)C(=O)N[C@@H]([C@@H](C)O)C(=O)N[C@@H](C)C(=O)N[C@@H]([C@@H](C)O)C(=O)N1)[C@@H](C)O)C(=O)N[C@@H](CC(C)C)C(=O)N1CCC[C@H]1C(=O)N1CCC[C@H]1C(=O)N[C@H](C(=O)N[C@@H](CC(N)=O)C(=O)N[C@H](C(=O)NCC(=O)N[C@@H](CO)C(=O)N[C@@H](CC(N)=O)C(=O)N[C@H](C(=O)N[C@@H](Cc1ccc(O)cc1)C(N)=O)[C@@H](C)O)C(C)C)[C@@H](C)O)", "values": [{"measurement": "CTa receptor human EC50", "setting": "[1]", "result": 0.265, "unit": "nM"}, {"measurement": "Amylin receptor human EC50", "setting": "[2]", "result": 0.0624, "unit": "nM"}]}
